We go through ten molecules from patent US20170233472A1 (MacroGenics, published 2017).

As usually defined, the Kd is the concentration at which binding is half-saturated. Higher therefore signals a looser complex.

Assay [1] addresses T1, His-tagged soluble human ROR1 (shROR1-His) (human, UniProt Q01973 30-406).
T1 construct: also called ROR1 protein; immobilized ROR1; not shown: His-Tag
The assay can be described thus: SPR (Biacore), diabody captured via anti-E/K-coil, shROR1-His as analyte. The method, then: The binding kinetics of DART-1 to DART-6, DART-10 to DART-17, DART-20 to DART-33 was investigated using Biacore analysis in which ROR1 protein was passed over immobilized diabodies. Briefly, each diabody construct was captured on immobilized anti-E/K-coil surface and was incubated with shROR1-His at 25 and 100 nM, and the kinetics of binding were determined via Biacore analysis.
(In general: Surface plasmon resonance follows binding to a sensor surface in real time, without labels.)

In assay [2] the target is human ROR1 expressed on the surface of cancer cells (human, UniProt Q01973 30-937). The assay can be described thus: cell-based or functional assay.
Sequence of human ROR1 expressed on the surface of cancer cells (Q01973 30-937): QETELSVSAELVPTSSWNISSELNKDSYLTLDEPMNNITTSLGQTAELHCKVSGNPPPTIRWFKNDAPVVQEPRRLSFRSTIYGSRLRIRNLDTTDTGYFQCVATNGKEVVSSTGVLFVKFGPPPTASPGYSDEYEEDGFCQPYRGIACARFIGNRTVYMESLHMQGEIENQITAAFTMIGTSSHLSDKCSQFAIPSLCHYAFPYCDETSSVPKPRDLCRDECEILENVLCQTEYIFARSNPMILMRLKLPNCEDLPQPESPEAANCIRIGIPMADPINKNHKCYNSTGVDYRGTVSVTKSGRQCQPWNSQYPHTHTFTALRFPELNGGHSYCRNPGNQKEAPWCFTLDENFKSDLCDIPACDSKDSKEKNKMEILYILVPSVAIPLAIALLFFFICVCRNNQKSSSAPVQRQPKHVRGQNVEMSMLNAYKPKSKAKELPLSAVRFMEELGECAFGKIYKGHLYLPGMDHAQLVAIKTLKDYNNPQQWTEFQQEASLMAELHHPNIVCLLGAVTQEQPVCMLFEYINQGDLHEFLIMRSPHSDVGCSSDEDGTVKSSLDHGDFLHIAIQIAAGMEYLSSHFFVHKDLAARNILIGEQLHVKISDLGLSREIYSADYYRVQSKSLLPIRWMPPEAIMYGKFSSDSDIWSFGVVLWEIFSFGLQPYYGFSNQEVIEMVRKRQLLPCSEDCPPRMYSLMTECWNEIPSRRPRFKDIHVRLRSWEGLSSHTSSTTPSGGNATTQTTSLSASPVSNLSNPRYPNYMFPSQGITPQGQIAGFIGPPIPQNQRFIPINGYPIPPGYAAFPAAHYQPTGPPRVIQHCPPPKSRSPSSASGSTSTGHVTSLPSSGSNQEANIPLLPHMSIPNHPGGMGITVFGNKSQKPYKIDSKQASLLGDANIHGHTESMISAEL

T1 sequence (Q01973 30-406): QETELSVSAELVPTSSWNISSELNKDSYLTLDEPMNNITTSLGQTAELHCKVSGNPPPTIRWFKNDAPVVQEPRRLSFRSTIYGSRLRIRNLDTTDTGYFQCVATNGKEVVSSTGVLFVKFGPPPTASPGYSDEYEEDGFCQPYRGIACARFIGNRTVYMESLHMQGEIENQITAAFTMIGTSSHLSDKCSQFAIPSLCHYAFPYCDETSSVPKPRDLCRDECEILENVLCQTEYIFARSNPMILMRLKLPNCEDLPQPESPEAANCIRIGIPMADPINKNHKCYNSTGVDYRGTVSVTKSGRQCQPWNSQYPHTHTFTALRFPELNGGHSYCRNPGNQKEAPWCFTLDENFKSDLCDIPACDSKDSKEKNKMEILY

B1: DART-22 (bispecific antibody)
chain 1: QLVLTQSPSASASLGSSVKLTCTLSSGHKTDTIDWYQQQPGKAPRYLMKLEGSGSYNKGSGVPDRFGSGSSSGADWYLTISSLQSEDEADYYCGTDYPGNYLFGGGTQLTVLGGGGSGGGGEVQLVESGGGLVQPGGSLRLSCAASGFTFSTYAMNWVRQAPGKGLEWVGRIRSKYNNYATYYADSVKGRFTISRDDSKNSLYLQMNSLKTEDTAVYYCVRHGNFGNSYVSWFAYWGQGTLVTVSSGGCGGGKVAALKEKVAALKEKVAALKEKVAALKE
chain 2: QAVVTQEPSLTVSPGGTVTLTCRSSTGAVTTSNYANWVQQKPGQAPRGLIGGTNKRAPWTPARFSGSLLGGKAALTITGAQAEDEADYYCALWYSNLWVFGGGTKLTVLGGGGSGGGGQEQLVESGGGLVQPGGSLRLSCAASGFTFSDYYMSWVRQAPGKGLEWVATIYPSSGKTYYADSVKGRLTISSDNAKNSLYLQMNSLRAEDTAVYYCARDSYADDAALFDIWGQGTTVTVSSGGCGGGEVAALEKEVAALEKEVAALEKEVAALEK
notes: ROR1×CD3 two chain diabody; VL(2): R71W; VH(1): F67L
In turn, B1 showed a Kd in assay [1] of 1.3 nM.

B2: DART-31 (bispecific antibody)
chain 1: QLVLTQSPSASASLGSSVKLTCTLSSGHKTDTIDWYQQQPGKAPRYLMKLEGSGSYNKGSGVPDRFGSGISSGADWYLTISSLQSEDEADYYCGTDNPGNYLFGGGTQLTVLGGGGSGGGGEVQLVESGGGLVQPGGSLRLSCAASGFTFSTYAMNWVRQAPGKGLEWVGRIRSKYNNYATYYADSVKGRFTISRDDSKNSLYLQMNSLKTEDTAVYYCVRHGNFGNSYVSWFAYWGQGTLVTVSSGGCGGGKVAALKEKVAALKEKVAALKEKVAALKE
chain 2: QAVVTQEPSLTVSPGGTVTLTCRSSTGAVTTSNYANWVQQKPGQAPRGLIGGTNKRAPWTPARFSGSLLGGKAALTITGAQAEDEADYYCALWYSNLWVFGGGTKLTVLGGGGSGGGGQEQLVESGGGLVQPGGSLRLSCAASGFTFSDYYMSWVRQAPGKGLEWVATIYPSSGKTYYADSVKGRLTISSDNAKDSLYLQMNSLRAEDTAVYYCTRDSYADDAALFDIWGQGTTVTVSSGGCGGGEVAALEKEVAALEKEVAALEKEVAALEK
notes: ROR1×CD3 two chain diabody; VL(13): S66I/R71W/Y92N; VH(7): F67L/N76D/A93T
B2 had a dissociation constant Kd in assay [1] of 0.9 nM.

B3: DART-33 (bispecific antibody)
chain 1: QLVLTQSPSASASLGSSVKLTCTLSSGHKTDTIDWYQQQPGKAPRYLMKLEGSGSYNKGSGVPDRFSGSSSGADWYLTISSLQSEDEADYYCGTDYPGNYLFGGGTQLTVLGGGGSGGGGEVQLVESGGGLVQPGGSLRLSCAASGFTFSTYAMNWVRQAPGKGLEWVGRIRSKYNNYATYYADSVKGRFTISRDDSKNSLYLQMNSLKTEDTAVYYCVRHGNFGNSYVSWFAYWGQGTLVTVSSGGCGGGKVAALKEKVAALKEKVAALKEKVAALKE
chain 2: QAVVTQEPSLTVSPGGTVTLTCRSSTGAVTTSNYANWVQQKPGQAPRGLIGGTNKRAPWTPARFSGSLLGGKAALTITGAQAEDEADYYCALWYSNLWVFGGGTKLTVLGGGGSGGGGQEQLVESGGGLVQPGGSLRLSCAASGFTFSDYYMSWIRQAPGKGLEWVATIYPSSGKTYYADSAKGRLTISSDNAKDSLYLQMNSLRAEDTAVYYCTRDSYADDAALFDIWGQGTTVTVSSGGCGGGEVAALEKEVAALEKEVAALEKEVAALEK
notes: ROR1×CD3 two chain diabody
As for B3, binding in assay [1] was put at a Kd of 1.3 nM.

B4: DART-24 (bispecific antibody)
chain 1: QLVLTQSPSASASLGSSVKLTCTLSSGHKTDTIDWYQQQPGKAPRYLMKLEGSGSYNKGSGVPDRFGSGSSSGADRYLTISSLQSEDEADYYCGTDNPGNYLFGGGTQLTVLGGGGSGGGGEVQLVESGGGLVQPGGSLRLSCAASGFTFSTYAMNWVRQAPGKGLEWVGRIRSKYNNYATYYADSVKGRFTISRDDSKNSLYLQMNSLKTEDTAVYYCVRHGNFGNSYVSWFAYWGQGTLVTVSSGGCGGGKVAALKEKVAALKEKVAALKEKVAALKE
chain 2: QAVVTQEPSLTVSPGGTVTLTCRSSTGAVTTSNYANWVQQKPGQAPRGLIGGTNKRAPWTPARFSGSLLGGKAALTITGAQAEDEADYYCALWYSNLWVFGGGTKLTVLGGGGSGGGGQEQLVESGGGLVQPGGSLRLSCAASGFTFSDYYMSWVRQAPGKGLEWVATIYPSSGKTYYADSVKGRFTISSDNAKNSLYLQMNSLRAEDTAVYYCTRDSYADDAALFDIWGQGTTVTVSSGGCGGGEVAALEKEVAALEKEVAALEKEVAALEK
notes: ROR1×CD3 two chain diabody; VL(10): Y92N; VH(3): A93T
For the molecule B4, the Kd in assay [1] amounted to 2.4 nM.

B5: DART-27 (bispecific antibody)
chain 1: QLVLTQSPSASASLGSSVKLTCTLSSGHKTDTIDWYQQQPGKAPRYLMKLEGSGSYNKGSGVPDRFGSGISSGADWYLTISSLQSEDEADYYCGTDYPGNYLFGGGTQLTVLGGGGSGGGGEVQLVESGGGLVQPGGSLRLSCAASGFTFSTYAMNWVRQAPGKGLEWVGRIRSKYNNYATYYADSVKGRFTISRDDSKNSLYLQMNSLKTEDTAVYYCVRHGNFGNSYVSWFAYWGQGTLVTVSSGGCGGGKVAALKEKVAALKEKVAALKEKVAALKE
chain 2: QAVVTQEPSLTVSPGGTVTLTCRSSTGAVTTSNYANWVQQKPGQAPRGLIGGTNKRAPWTPARFSGSLLGGKAALTITGAQAEDEADYYCALWYSNLWVFGGGTKLTVLGGGGSGGGGQEQLVESGGGLVQPGGSLRLSCAASGFTFSDYYMSWVRQAPGKGLEWVATIYPSSGKTYYADSVKGRFTISSDNAKNSLYLQMNSLRAEDTAVYYCTRDSYADDAALFDIWGQGTTVTVSSGGCGGGEVAALEKEVAALEKEVAALEKEVAALEK
notes: ROR1×CD3 two chain diabody; VL(12): S66I R71W; VH(3): A93T
Consider B5, for which the affinity in assay [1], expressed as Kd, was 1.2 nM.

B6: DART-29 (bispecific antibody)
chain 1: QLVLTQSPSASASLGSSVKLTCTLSSGHKTDTIDWYQQQPGKAPRYLMKLEGSGSYNKGSGVPDRFGSGSSSGADWYLTISSLQSEDEADYYCGTDNPGNYLFGGGTQLTVLGGGGSGGGGEVQLVESGGGLVQPGGSLRLSCAASGFTFSTYAMNWVRQAPGKGLEWVGRIRSKYNNYATYYADSVKGRFTISRDDSKNSLYLQMNSLKTEDTAVYYCVRHGNFGNSYVSWFAYWGQGTLVTVSSGGCGGGKVAALKEKVAALKEKVAALKEKVAALKE
chain 2: QAVVTQEPSLTVSPGGTVTLTCRSSTGAVTTSNYANWVQQKPGQAPRGLIGGTNKRAPWTPARFSGSLLGGKAALTITGAQAEDEADYYCALWYSNLWVFGGGTKLTVLGGGGSGGGGQEQLVESGGGLVQPGGSLRLSCAASGFTFSDYYMSWVRQAPGKGLEWVATIYPSSGKTYYADSVKGRLTISSDNAKDSLYLQMNSLRAEDTAVYYCTRDSYADDAALFDIWGQGTTVTVSSGGCGGGEVAALEKEVAALEKEVAALEKEVAALEK
notes: ROR1×CD3 two chain diabody; VL(11): R71W/Y92N; VH(7): F67L/N76D/A93T
The molecule B6 returned a Kd in assay [1] of 1.3 nM.

B7: DART-30 (bispecific antibody)
chain 1: QLVLTQSPSASASLGSSVKLTCTLSSGHKTDTIDWYQQQPGKAPRYLMKLEGSGSYNKGSGVPDRFGSGISSGADWYLTISSLQSEDEADYYCGTDYPGNYLFGGGTQLTVLGGGGSGGGGEVQLVESGGGLVQPGGSLRLSCAASGFTFSTYAMNWVRQAPGKGLEWVGRIRSKYNNYATYYADSVKGRFTISRDDSKNSLYLQMNSLKTEDTAVYYCVRHGNFGNSYVSWFAYWGQGTLVTVSSGGCGGGKVAALKEKVAALKEKVAALKEKVAALKE
chain 2: QAVVTQEPSLTVSPGGTVTLTCRSSTGAVTTSNYANWVQQKPGQAPRGLIGGTNKRAPWTPARFSGSLLGGKAALTITGAQAEDEADYYCALWYSNLWVFGGGTKLTVLGGGGSGGGGQEQLVESGGGLVQPGGSLRLSCAASGFTFSDYYMSWVRQAPGKGLEWVATIYPSSGKTYYADSVKGRLTISSDNAKDSLYLQMNSLRAEDTAVYYCTRDSYADDAALFDIWGQGTTVTVSSGGCGGGEVAALEKEVAALEKEVAALEKEVAALEK
notes: ROR1×CD3 two chain diabody; VL(12): S66I/R71W; VH(7): F67L N76D A93T
B7 displayed a Kd in assay [1] of 1.2 nM.

B8: DART-23 (bispecific antibody)
chain 1: QLVLTQSPSASASLGSSVKLTCTLSSGHKTDTIDWYQQQPGKAPRYLMKLEGSGSYNKGSGVPDRFGSGSSSGADWYLTISSLQSEDEADYYCGTDYPGNYLFGGGTQLTVLGGGGSGGGGEVQLVESGGGLVQPGGSLRLSCAASGFTFSTYAMNWVRQAPGKGLEWVGRIRSKYNNYATYYADSVKGRFTISRDDSKNSLYLQMNSLKTEDTAVYYCVRHGNFGNSYVSWFAYWGQGTLVTVSSGGCGGGKVAALKEKVAALKEKVAALKEKVAALKE
chain 2: QAVVTQEPSLTVSPGGTVTLTCRSSTGAVTTSNYANWVQQKPGQAPRGLIGGTNKRAPWTPARFSGSLLGGKAALTITGAQAEDEADYYCALWYSNLWVFGGGTKLTVLGGGGSGGGGQEQLVESGGGLVQPGGSLRLSCAASGFTFSDYYMSWVRQAPGKGLEWVATIYPSSGKTYYADSVKGRFTISSDNAKDSLYLQMNSLRAEDTAVYYCARDSYADDAALFDIWGQGTTVTVSSGGCGGGEVAALEKEVAALEKEVAALEKEVAALEK
Take B8: in assay [2], the “MR(%) (maximum response), redirected cell killing of HBL-2 cells (LDH release)” value was 25.6%; the “MR(%) (maximum response), redirected cell killing of JIMT-1 cells (LDH release)” value was 37.3%; the “MR(%) (maximum response), redirected cell killing of Jeko-1 cells (LDH release)” value was 36.4%.

B9: DART-26 (bispecific antibody)
chain 1: QLVLTQSPSASASLGSSVKLTCTLSSGHKTDTIDWYQQQPGKAPRYLMKLEGSGSYNKGSGVPDRFGSGSSSGADWYLTISSLQSEDEADYYCGTDNPGNYLFGGGTQLTVLGGGGSGGGGEVQLVESGGGLVQPGGSLRLSCAASGFTFSTYAMNWVRQAPGKGLEWVGRIRSKYNNYATYYADSVKGRFTISRDDSKNSLYLQMNSLKTEDTAVYYCVRHGNFGNSYVSWFAYWGQGTLVTVSSGGCGGGKVAALKEKVAALKEKVAALKEKVAALKE
chain 2: QAVVTQEPSLTVSPGGTVTLTCRSSTGAVTTSNYANWVQQKPGQAPRGLIGGTNKRAPWTPARFSGSLLGGKAALTITGAQAEDEADYYCALWYSNLWVFGGGTKLTVLGGGGSGGGGQEQLVESGGGLVQPGGSLRLSCAASGFTFSDYYMSWVRQAPGKGLEWVATIYPSSGKTYYADSVKGRFTISSDNAKNSLYLQMNSLRAEDTAVYYCTRDSYADDAALFDIWGQGTTVTVSSGGCGGGEVAALEKEVAALEKEVAALEKEVAALEK
notes: ROR1×CD3 two chain diabody; VL(11): R71W/Y92N; VH(3): A93T
The molecule B9 returned a Kd in assay [1] of 1.2 nM.

B10: DART-28 (bispecific antibody)
chain 1: QLVLTQSPSASASLGSSVKLTCTLSSGHKTDTIDWYQQQPGKAPRYLMKLEGSGSYNKGSGVPDRFGSGISSGADWYLTISSLQSEDEADYYCGTDNPGNYLFGGGTQLTVLGGGGSGGGGEVQLVESGGGLVQPGGSLRLSCAASGFTFSTYAMNWVRQAPGKGLEWVGRIRSKYNNYATYYADSVKGRFTISRDDSKNSLYLQMNSLKTEDTAVYYCVRHGNFGNSYVSWFAYWGQGTLVTVSSGGCGGGKVAALKEKVAALKEKVAALKEKVAALKE
chain 2: QAVVTQEPSLTVSPGGTVTLTCRSSTGAVTTSNYANWVQQKPGQAPRGLIGGTNKRAPWTPARFSGSLLGGKAALTITGAQAEDEADYYCALWYSNLWVFGGGTKLTVLGGGGSGGGGQEQLVESGGGLVQPGGSLRLSCAASGFTFSDYYMSWVRQAPGKGLEWVATIYPSSGKTYYADSVKGRFTISSDNAKNSLYLQMNSLRAEDTAVYYCTRDSYADDAALFDIWGQGTTVTVSSGGCGGGEVAALEKEVAALEKEVAALEKEVAALEK
notes: ROR1×CD3 two chain diabody; VL(13): S66I/R71W/Y92N; VH(3): A93T
B10: the equilibrium dissociation constant (Kd) in assay [1] worked out at 1.5 nM.
